The values below are quoted from earlier work in article PMC11394807.

Read-outs that look alike come from different tables or passages of the source.

Data set [1] has as its target Spike protein (SARS-CoV-2) (UniProt P0DTC2).
The target is the same in data set [2]. This is another data set of the same source.
For data set [3], the target named is Spike protein RBD (SARS-CoV-2) (UniProt P0DTC2).
In data set [4] the target is Spike protein (SARS-CoV-2) (UniProt P0DTC2). The source holds these as a separate data set.
Data set [5] has the same target. The source holds these as a separate data set.

Chain of ASGR1 (P07306 whole entry): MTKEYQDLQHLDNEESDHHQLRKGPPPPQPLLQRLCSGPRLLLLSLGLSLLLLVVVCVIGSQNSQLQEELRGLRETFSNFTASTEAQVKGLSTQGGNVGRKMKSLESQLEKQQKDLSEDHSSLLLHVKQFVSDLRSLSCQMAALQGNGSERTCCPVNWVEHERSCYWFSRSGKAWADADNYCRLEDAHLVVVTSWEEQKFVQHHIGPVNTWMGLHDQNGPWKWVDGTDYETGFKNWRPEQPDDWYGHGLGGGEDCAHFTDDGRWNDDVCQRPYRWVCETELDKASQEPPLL
Chain of GRP78 (P11021 19-654): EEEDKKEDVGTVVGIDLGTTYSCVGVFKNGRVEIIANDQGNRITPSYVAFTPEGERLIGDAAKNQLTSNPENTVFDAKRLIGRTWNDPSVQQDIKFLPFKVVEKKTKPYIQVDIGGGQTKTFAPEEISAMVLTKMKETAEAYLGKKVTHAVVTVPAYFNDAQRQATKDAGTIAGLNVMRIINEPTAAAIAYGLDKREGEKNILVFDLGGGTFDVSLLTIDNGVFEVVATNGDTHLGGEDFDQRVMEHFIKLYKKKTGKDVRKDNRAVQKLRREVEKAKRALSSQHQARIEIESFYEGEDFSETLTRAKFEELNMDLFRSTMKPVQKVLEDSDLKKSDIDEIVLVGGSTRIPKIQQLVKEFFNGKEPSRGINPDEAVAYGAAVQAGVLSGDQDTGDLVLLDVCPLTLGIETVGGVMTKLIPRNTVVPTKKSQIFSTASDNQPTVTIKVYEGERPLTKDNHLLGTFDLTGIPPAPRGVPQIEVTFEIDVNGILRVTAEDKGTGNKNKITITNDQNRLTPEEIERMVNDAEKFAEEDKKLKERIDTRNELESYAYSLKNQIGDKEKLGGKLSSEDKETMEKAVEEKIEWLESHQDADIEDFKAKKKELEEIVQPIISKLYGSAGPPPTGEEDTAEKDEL

As usually defined, the Kd is the concentration at which binding is half-saturated. For ASGR1 (from UniProt P07306), the dissociation constant Kd in data set [1] was 125 nM.

As to AXL (from UniProt P30530), the Kd in data set [2] is 882 nM.

For CD147 (from UniProt P35613), in data set [3], the dissociation constant (Kd) is 185 nM.

For GRP78 (from UniProt P11021), in data set [4], the dissociation constant (Kd) is 55.2 nM.

Regarding NRP1 (from UniProt O14786), in data set [5], the Kd is 166 nM.
